Test results: a protein production outcome set (Wang et al. 2014)

Experiment: label from the status in PepcDB records

For “MSQEDITGKDRLQELIGADYRLQWIIGHGGMSTVWLADDVVNDREVAIKVLRPEFSDNQEFLNRFRNEAQAAENIDSEHVVATYDYREVPDPAGHTFCFIVMEFVRGESLADLLEREGRLPEDLALDVMEQAAHGLSVIHRMDMVHRDIKPGNMLITANGIVKITDFGIAKAAAAVPLTRTGMVVGTAQYVSPEQAQGKEVTAASDIYSLGVVGYEMMAGRRPFTGDSSVSVAIAHINQAPPQMPTSISAQTRELIGIALRKDPGRRFPDGNEMALAVSAVRLGKRPPQPRTSAMMAQAEAPSPSESTAMLGRVARPATITQEAAPKRGSGIGIGLFIAALLAVIIGAVIYAGTTGILFNDTPEETTTPETITETYTPTVEETTSQWVPPTPPTRSTFTEPETTSHRPTTSEESTSEEPTTEAPTSSRTVPQIPTSTPRTSASVPVETNAPADDLIDAVNGLLDVGGAQ”, the protein production was “failed”.
In the case of “HPLLAGIPFRQLARPLMQDLAYSVRGTVSIGLLDGPSVVYVETARSGDVGPHTPDIGMPIPVVRTAMGRAAASTLPEAEAERLDRQLEAADGAMWASHRDLYRDGLRQCAERQFCTCFGDYLPAIHAVAAPLFRQRDRSFAINCGIPAFRLQPGQLEDEIGPRVRALAESIRALGVDPE”, the protein production is reported as “failed”.
In the case of “MHNDFNLLILSGPSGAGKSTLTKYLQEKIPKTHFSLSTTTRKPREGEVDGLHYNFVSEEEFKQGIEKGQFLEWAIVHNHYYGTSKIPVEKALKEGKIVIFDIDVQGHEILKKHYPNACSVFISTKNQEILKERLLLRGTDSKETIEKRLINAYKEMQCLESFDYLIINEDLEKSKEIILSIAKTLVHRLKAFNFEKICKAWKNETL”, the protein production is reported as “failed”.
In the case of “MNSLDKLKTFIIILIIFSIGFFSRIETAELKGMNTADRAYFTDENGLPYMYEPDSYYNYRLTANILDHGHPGDKIINGTPWDLHSNYPPGNRVNYPPLILWISLLFHNFINLFIPFSLIETCFWLPAIIGPLAGIVMFFMVRRYAGDLPGLLSGVLLVLAPVYFSRTVPGFFDTDMFNIIFPLLVIFFLLKATETKNNYMFPLLLSSFSLALLSLSWNGWAYIFYIIIISSILYMTLCKLKGKAVMGFSRKIAVFVIISLLIIGLAGRLGYALIFPTFFKFTFKSLSAGGWPGIFESISELSAPTFDEFLSLPGPVNMGIGLFGFVIIGSIMLRDEIKRVHLPDFSWYPFILIGIWLIIGLAAYSLSTRFALLVIPPLIIFLGLLMGVMASYLKGSPSMRLRRSGNVFILSLVVMLSTISFIQAYEIQFVPIVDDDFVAASYWIKNETSMDTVVITEWGYGHPLATFSQRPVLMDGGMNPSTPRSYWVYHAFATNNESLSIGIFSMLSTSGNKAVELLNNRTGNTSLTVTILDDILGVNRIYAEKTLQEKYGIDPGFTGELLSYTHPTNKPFIILTKDDMIKWGHWYIYYGFWDFNRSRGYDYIYYVGSSNDTGQIRYYSNDVKFDLTSGASWENRKPYTTIIKYRNFKRVIEGDGKSDFSIIVLLDKNQAIVVDKRFQDSLFVKLVILKEETEHIKPIYKNNSTIIWTVR”, the protein production is reported as “failed”.
With “TAYIIVGLTPKDAEKLQQYGARVASTLAKYSGEVLVKGSVEQLHGKFEHKAQVILEFPSREDAYNWYHSEEYQALISTRDLGMDSQFQLIG” the protein production was “not failed”.
In the case of “NQQTPTFYVHGFQGSAKSTNTLIAHAEKTAHAHKVLVATVSTSGQVTLTGKWRGRVRNPIIQVVFKNNLAQYDQQSAWLAKVITTVQQQHAFKHYNIVAHSAGCVASVNMLMTQQTTTFPKINKLVTIAGPFDGVVGEDDVANQNSFLTSGQPKYLHAAYELLAAKRNNFPKNVQLLNIVGTLNDGSHSDSLVTNVSARSIKYLLRGRDVDYTEKDFYGAHAQHSQLHENAKVALAVDRFLWHR”, the protein production is reported as “failed”.
With “PGAPSTVRISKNVDGIHLSWEPPTSPSGNILEYSAYLAIRTAQMQDNPSQLVFMRIYCGLKTSCTVTAGQLANAHIDYTSRPAIVFRISAKNEKGYGPATQIRWLQGNSK” the protein production was “not failed”.
In the case of “MGWQTLKQQSVPARKRLLYLHIPFCATHCTFCGFYQNKLRDDSTATYTRYLLQELAMEADSPLHQSAPIHAVYFGGGTPTALAADELSQIIRAIRTSLPLAPDCEITVEGRAMDFDDERIDACLDAGANRFSIGIQTFDTRIRQRMARTSDKQQSIRFLERLCGRDRAAVVCDLMFGLPGQTPEIWREDLAIVSDLPLDGVDLYALNLLPTTPLAKAAENQRVALPDVVARRDFYRTGAAFLADSGWHQLSNSHWARTTRERNLYNLLIKQGADCLAMGSGAGGNINGQAYMMERSLERYYQQIDQGQKPIMMMTPASSTGPWQHQLQAGIEVGRIKLPQLTQHARELQPLLSQWHQAGLTCDDSTCLRLTNDGRFWANNLMQALQQIIPQLNAEEHAHLEHHHHHH”, the protein production is reported as “failed”.
In the case of “MAFRYEHQEPGSRVISGGRDHSNRLLERLGFTVIDGRPTTVEGERAWRLAVWSHLQLTEDLSQVPPGVLRAFGVYGGGQGIWMDKARTDAVHEGGITMGVLHTGAHYPDEISDNDVIYHYPTTGRGPGRDESEVAATKAAATLKLPIFVIAKPTPRSSVRIVRLAWVEGWEERSRIFLISFGDSRPEHLLTEDHSDNQPFSLTGNRSRSSRRNVRERPGQRRFKLRVFQRYGPRCPLSGIAVPEMIEAAHLRPDAEDGTDDPRNGLPLNAALHRAYDAYLFAIEPETLSVVTRPQGPTIEELGIFTPHLRELPRRPHTEALRWRYREWQLRIGTQG”, the protein production is reported as “failed”.
In the case of “MSLDYTYADDSLTLHTDMYQINMMQTYWELGRADLHAVFECYFREMPFNHGYAIFAGLERLVNYLENLTFTESDIAYLREVEEYPEDFLTYLANFEFKCTVRSALEGDLVFNNEPLIQIEGPLAQCQLVETALLNMVNFQTLIATKAARIKSVIGDDPLLEFGTRRAQELDAAIWGTRAAYIGGADATSNVRAGKIFGIPVSGTHAHSLVQSYGNDYEAFMAYAKTHRDCVFLVDTYDTLKAGVPSAIRVAREMGDKINFLGVRIDSGDMAYISKRVREQLDEAGFTEAKIYASNDLDENTILNLKMQKSKIDVWGVGTKLITAYDQPALGAVFKLVSIEGEDGQMKDTIKLSSNAEKVTTPGKKQVWRITRKSDKKSEGDYVTLWNEDPRQEEEIYMFHPVHTFINKYVRDFEARPVLQDIFVEGKRVYELPTLDEIKQYAKENLDSLWEEYKRDLNPQKYPVDLSTDCWNHKMNLLEKVRKDVKHLTETVNKEAEGHHHHHH”, the protein production is reported as “not failed”.
For “MADQAPRPAREFVVEADGGSRGNPGPAGYGAVVLDPVTGEALVEAAEYLGVVTNNVAEYRGLLAGLRAAAELDPDATVHVRMDSKLVVEQMSGRWKIKHPDMKPLAAEAARVFPPGRVTYEWIPRASNKHADRLANEAMDAGARGEAWSPSDSTAELDAAAADRAAPAGRTAGSRRTGAASAVAPAGTEGGDGGEPAPDGGGAAAGEPLARAGRDRVDAASLGAGTRAATSTGASATGTSGTGASATGTSGTGASATGAPGLGVAAETSGEADVRAAKVVASPGWGPPDMGAPATFVLLRHGETPLTPQKRFSGSGGSDPSLSPVGREQAERVAASLARRGTIEAVVASPLARTRETAGIVAARLGLEVAIEEGLRETDFGAWEGLTFGEVRERHPADLDAWLASPDAEPTGGGESFAATGTRIAATRDRLVAAYAGRTVLLVSHVTPIKTFVRLALGAPPESLFRMELSAASLSAVAYYADGGASVRLFNETSHLR”, the protein production was “failed”.
With “MAGTNSERELLTEGPAIILAFPQLGENIGMVARAMANFGLSELRLVSPRDGWPSEKARSAASRADHVIDGAKLYETLEEALADLNFVYATTARDRDGFKPVRSPIVAARELRHRFKEGEKVGIIFGRERTGLTNAEVALADEIVTFPVNPAFASLNLAQAVLLMSYEWLKTGMTSEDETSFQASQQRPATKEQLHGLCEHLEEA” the protein production was “failed”.
With “MGHHHHHHSHMIDSIRVEGFRGLKELELSSLRRINVIVGRNNSGKSTLLEALSLFLGSSDPGTFGNVLHEILIWRGWYGIQTVDDLFYNGGDSFSISSTGKTLEALNSKHSLEFKLNGEPFYKIDRESIRRLASQAVLLARFSPKENFEFLTPLTFRRFGYAESLYSYAYERKVVKDSIKVLNEAYPEVEGFSPLLKEDNWVLYVETKYGVYPYYLMGEGFKSAMIISFLSSLLRDGVLLIDSAEAFHHP” the protein production was “failed”.
In the case of “MGQALGCIQVDQSNVAIKETFGKFDEVLEPGCHCLPWCLGSQVAGHLSLRVQQLDVRCETKTKDNVFVTVVASIQYRALAESAQDAFYKLSNTRNQIQAYVFDVIRASVPKLDLDSTFEQKNDIAKTVETELEKAMSHYGYEIVQTLIVDIEPDVHVKRAMNEINAASRMREAASEKAEAEKILQIKRAEGEAESKYLSGMGIARQRQAIVDGLRNSVLAFSESVPGTSSKDVMDMVLVTQYFDTLKEIGASSKSNSVFIPHGPGAVRDIASQIRDGLLQGNSAAE”, the protein production is reported as “failed”.
With “MQSINFRTARGNLSEVLNNVEAGEEVEITRRGREPAVIVSKATFEAYKKAALDAEFASLFDTLDSTNKELVNRLEHHHHHH” the protein production was “not failed”.
In the case of “MSILDTLKTPVIVAPMAGGPSTPALVNAAAEAGSLGFLAGGVMPLEQLKQELSEVKGVFGVNLFRPQTDAPKPSDIDELAGLLSSAFRQFGLDEPTVPTPDLSNGWEAKFEAVLAAKPAVFSCTFGIFSAEEFARIKATGIEAWVTVTNPEDALAAQKAGANALVVQGPEAGGHRSTWSIEVEPDERDLKTLLAAVKQAGVYLPLIAAGGLSTSADVAAILEAGASAASCGSAFLLSDEAGTSSLNREILDAAPALGLESVSSRAFSGRYARGVETRFTRSNEGLPPLYPYLNPMITSLRKVAGSAGNWDYAYCLVGVGLESIAKGSAKQILESLTPSALG”, the protein production is reported as “failed”.
For “MTTQMPIASPRTEFYERAFGGFHDQAVAEVRKETYGEDLGQNDWSTVDEMRQFSQWLELSPQSHLLDVCSGSGGPALFLARNSGCRVTGVDLHPDALQTGRQLAQALELHDRSQFVECDVRQRMPFPDGTFDALWCIDSVIHIPDRLALLREWCRLLKPGGRFLYTDPTLVTGMVSKEEILLRGTPGYFLYTPIGLNERLIEQAGLRLDMQADLTHSITELSERWHAAREKRCAVLTATEGEEAFARMQSFLTATHRVSVEGRLSRWVFVGVRP”, the protein production was “failed”.
For “MDIKEAGPFPVKKEQFRMTVNGQAWEVAAVPTTHLSDLLRKEFQLTGTKVSCGIGRCGACSILIDGKLANACMTMAYQADGHSITTIEGLQKEELDMCQTAFLEEGGFQCGYCTPGMIIALKALFRETPQPSDKDIEEGLAGNLCRCTGYGGIMRSACRIRRELNGGRRESGF”, the protein production was “failed”.
With “MGKKLDALLGRSFKTNKFKSLITLALTRLSILKNQRQARLSQAISDVTELLKLGQHEHAYHRVDQVVKDQNTLDVLFFIHGYFTLCLDRIHLFEHNRDCPEELLEAVSGLLFAASRIGEFPELQEIRNVLISRFGKDLAARSIELRSNCGVDPKIIQKLSTRPPPKEVRMKALKEIAAENNIVLKLDQASTSTEGTTNMQGTSDVSKTKLTSKDGRGEGYGLSDSVKRGKKKYKDVADAAQAAFESAAHAAEAAQAAVELSQFSPRGHDSPGNIGGENSFHGSENKESEQEQEGNDDSSEGEGDVMSESKRSMSDSEDIIDVPVMSFREDPVKLLEKDTIIYDSEEETQPSVETITISKSKDEQNRMVGSNRADTRHVDHMVRSIEDPIMRKAGLKGPVSVRTRQVRGY” the protein production was “failed”.
In the case of “MANHVSLILPPLSLYIHIPWCVQKCPYCDFNSHTQKGTIPEAEYIQHLLADLSQDLVTYKTAIANRKIHSIFIGGGTPSLFSAEAIAYLLAEIKQRIAFAPKIEITLEANPGTAEAERFICYTEAGINRISMGIQSFEEEKLRKLGRIHDAHEAKQAVYFAKNALISPSRTVGLHSFNLDLMHGLPNQTLEQALADLNTAISLNPPHFSWYQLTIEPNTMFYYRQPTLPDDDELWAIFEQGHQLLTMAGYQQYETSAYAKQGFQCQHNLNYWRFGDYLAIGCGAHGKISYPSGEIYRFSKTKHPKGYMRGDYRDSQQSIQLDDRPFEFFMNRFRLLEPTPKQEFECYTGLDCERVRPTIDWALNKHYISETSTTWQVTQKGKLFLNELLAGFLTLEHHHHHH”, the protein production is reported as “failed”.
